Earlier results as cited in paper PMC8438204, “Unraveling the Thermodynamics of Ultra-tight Binding of Intrinsically Disordered Proteins” (Frontiers in Molecular Biosciences, 2021).

Molecular target: prothymosin α (Homo sapiens) (UniProt P06454)
Sequence (P06454 2-111): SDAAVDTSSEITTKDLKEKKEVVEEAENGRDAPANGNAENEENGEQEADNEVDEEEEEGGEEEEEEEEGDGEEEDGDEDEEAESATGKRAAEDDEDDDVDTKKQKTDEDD

histone H1, sequence (P07305 2-194): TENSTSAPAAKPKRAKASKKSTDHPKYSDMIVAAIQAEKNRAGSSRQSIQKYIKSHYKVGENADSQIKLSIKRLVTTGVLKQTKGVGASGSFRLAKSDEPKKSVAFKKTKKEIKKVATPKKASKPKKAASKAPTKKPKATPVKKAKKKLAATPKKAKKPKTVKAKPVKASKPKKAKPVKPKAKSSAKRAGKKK

Kd: 2 pM
Substance: histone H1 (from UniProt P07305)
